Source: patent EP4556028A1
pKd: −log10 of the molar value.

Target: recombinant SARS-CoV-2 spike RBD, WH-1 (Sino Biological 40592-V08B) (SARS-CoV-2 (wild type, WH-1)) (UniProt P0DTC2)
Test: SPR (Biacore T200), minibinder immobilised, monomeric RBD as analyte

Substance	pKd	fold higher affinity than AHB2 [fold]
recombinant minibinder AHB2 with N- and C-terminal Ser/Gly extensions and C-terminal Cys (designed binder)	10.30	
recombinant minibinder LCB1 with N- and C-terminal Ser/Gly extensions and C-terminal Cys (designed binder)	11.30	10
